Assay results from the nanobody polyreactivity screen of Harvey et al. (2022).

Experiment: yeast display, Sf9 membrane polyspecificity reagent, FACS + sequencing; frameworks hold sequencing errors
How it was run: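 Genes from sorted yeast were amplified by colony PCR, read by MiSeq 2 × 250 sequencing and filtered on CDR length. These cells carried a synthetic nanobody library in Saccharomyces cerevisiae BJ5465 and were sorted by FACS into low and high (top ~1%) gates on anti-HA and streptavidin fluorescence. Polyreactivity is labelled according to the gate of origin.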

Sequence	polyreactivity (PSR sort gate)
QVQLVESGGGLVQAGGSLLLSCAASGRTFILNAMGWYSQAPGKERELVAAISWSGGSTYYADSVKGRFTISRDNAKNTVYLQMNSLKPEDTAVYYCAAETYAYLFHTYDYWGQGTQVTVSS	low polyreactivity
QVQLVESGGGLVQAGGSLLLSCAASGRTFNVYAMGRYRQAPGKERELVAAINRGGRTNYADSVKGRYTISRDNAKNTVYLQMNSLKPEDTAVYYCAALRVYVNWHKIGYDYWGQGTQVTVSS	low polyreactivity
QVQLVESGGGLVQAGGSLLLSCAASGRTFQDNAMGWYRQAPGKERELVAAISWRGGSTNYADSVKGRFTISRDNAKNTVYLQMNSLKPEDTAVYYCTRDPRKYGKLDYWGQGTQVTVSS	low polyreactivity
QVQLVESGGGLVQAGGSLLLSCAASGRTFTRYAMGWYRQAPGKERELVASITNGGGTYYADSVKGRFTMSRDNAKNTVYLQMNSLKPEDTAVYYCAKAERVTSHLYYSWGQGTQVTVSS	low polyreactivity
QVQLVESGGGLVQAGGSLLLSCAASGSIFGYYAMGWYRQAPGKERELVAAITRRGGSTYYADSVKGRFTISRDNAKNTVYLQMNSLKPEDTAVYYCNKVTRTEYDYWGQGTQVTVSS	high polyreactivity
QVQLVESGGGLVQAGGSLLLSCAASGSILVTYAMGWYRQAPGKERQLVAAISRGGRTYYADSVKGRFTISRDSAKNTVYLQMKSLNPEDNAVYYCNTLTRLVYDGMGYWGQGTQVIVSS	high polyreactivity
QVQLVESGGGLVQAGGSLLLSCAASGSTFGANAMGWYRQAPGKEREFVAAISRSGVRTYYADSVKGRFTISRDNAKNTVYLQMNSLKPEDTAVYYCAADGYWWTYTRYDYWGQGTQVTVSS	low polyreactivity
QVQLVESGGGLVQAGGSLLLSCAASGSTFPGYAMGWYRQEPGKERELVAAGGSTYYADSVKGRFTISLDNAKNTVYLQMNSLKPEDTAVYYCNARWYLVPIMEYLGQGTQVTVSS	low polyreactivity
QVQLVESGGGLVQAGGSLLLSCAASGSTFSGYAMGWYRQAPRKESDLVASINWSGGSTYADSVKGRFTISRDNAKNTVYLQMNSLKPEDTAVYYCARRWRAYLYGGRDYWGQGTQVTVSS	low polyreactivity
QVQLVESGGGLVQAGGSLLLSCAASGSTFYKYAMGWYRQAPGKERELVARNSRGGGSTYYADSVKGRFTISRDNAKNTVYLQMNSLKPEDTAVYYCAAGVRGQNEGYYWGQGTQVTVSS	high polyreactivity
QVQLVESGGGLVQAGGSLLLSCAASGYTFGTYDMGWYRQAPGKERELVAAISIGGSTNYADSVKGRFTISRDNAKNTVYLQMNSLKPEDTAVYYCAAEVNVGTLLLSVIVEDGDYWGQGTQVTVSS	low polyreactivity
QVQLVESGGGLVQAGGSLLLSCAASRSTFDTNAMGWYSQAPGKERELVAAIRWSTGNTYYADSVKGRFTISRDNAKKTDYLQKNSLKPEDTAVYYCAAYTGKHYKEGYWGQVTQVTVSS	low polyreactivity
QVQLVESGGGLVQAGGSLLLSCSASGRNFRANAMGWYRQAHRKERELVAAITSTGDRTYYADSVKGRFTISRDNAKNTVYLQMNSLKQEDTAVYYCAAENNRYGGYRKYDYWGLGTQVTVSS	low polyreactivity
QVQLVESGGGLVQAGGSLLLSCSASGRTFPVNAMGWYRKAHGKEREFVAVISSTGTTYYADSVKGRFTISRDNAKNTVYLQMNSLQPVDTAVYYCARRSNRRAYGNRVGVRRTVDYWGQGTQVTVSS	low polyreactivity
QVQLVESGGGLVQAGGSLLLSSAASGRTFSINAMGWYRQAHGKERELVAAITWSGGSTYYADSVKGRFTISRDNAKNTVYLQMNSLKPEDTAVYYCNAGLGKFPVKGGRRYRLDYSGQGTQVTVSS	low polyreactivity
QVQLVESGGGLVQAGGSLLLSSAASGSIFQPYAMGWYRPAPGKERELVAAISIGDSTNYADSVKGRFTISRDNAKITVYLQMNSLKPEDTAVYYCNTTGEYYDYWGQGTQVTVSS	low polyreactivity
QVQLVESGGGLVQAGGSLPLSCAASGLTFYRYAMGWYREAPGKERELVAAISFSGGSTYYADSVKGRFTISRDIAKYTVYIQMNCLKPEDTAVYYCAASYQGRRYQDRYDYWGQGNQVTVSS	high polyreactivity
QVQLVESGGGLVQAGGSLPLSCAASGNTFYNYAMGWYRQAPGKERELVAAISLSGGSTYYADSVKGRFTISRDNAKNTVYLQMNSLKPEDTAVYYCAADIFYYSSSYGYWGQGTQVTVSS	low polyreactivity
QVQLVESGGGLVQAGGSLPLSCAASGRIFRRNAKGWYRPAPGKEREMVAAIRYGGGTTYAHSVKGRFTISRDNAKNTVYLQMNSLKPEDTAVYYCAVGPRASFGYGYWGQGTQVTVSS	high polyreactivity
QVQLVESGGGLVQAGGSLPLSCAASGSIFGGNDMGWYRQAPGKERELVAAITSSGGSTYYADSVKGRFTITRDNAKITVYCQMNRLKPEVTAVYYCNADYYGPYRDYGYWGQGTQVTVSS	low polyreactivity
QVQLVESGGGLVQAGGSLPLSCAASGSIFYSNAMGWYRQAPGKERELVARISRSGGSTYYADSVKGRFTISRDNAKNTVYLQMNSLKPEDTAVYYCAKTFTRSWGLGGSWGQGTQVTVSS	low polyreactivity
QVQLVESGGGLVQAGGSLPLSCAAYGFTFWYYAMGWYRQAPGKERELVAAISTGGRTNYADSVKGRFTISRDNAKNTVYLQMNSLKPEDTAFYYCAADQSYFYLYRYRFDYWGQGTQVTVSS	high polyreactivity

Sequence	polyreactivity (PSR sort gate)
QVQLVESGGGLVQAGGSLPLSSAASGITFRLYALGWYRQAPGKERELVATITSLGGGTYYADSVKGRFTISRDNAKNTVYLQMHCLIPEDTAVYYCAADVSRPPAGFNYWGQGSQVTVSS	high polyreactivity
QVQLVESGGGLVQAGGSLPLTCAASGSIFAWNDMGWYRQAPGKERELVAAIRESGTGTYADSVKGRFTISRDNAKNNVYLQMKSLKPEDTAVYYGVADEIQFFIYRMEYWGQGTQVTVSS	low polyreactivity
QVQLVESGGGLVQAGGSLRCSWAASGFIFTPYAMGWYRQAPGTEREFVATITWSGGSTNYADSVKGRFTISRDNAKNTVYLPMNSLKPDDTAVYYCNADTWSPNDYWGQGTQVTVSS	low polyreactivity
QVQLVESGGGLVQAGGSLRFICAASGFLFRAYTMGWYRQAPGKERELVAAITSSGGRTYYADSVKGRFSISRDNAKNTVFLQMNSLKPEDTAVYYCATVYAKWKQFDSWGQGTQVNVSS	high polyreactivity
QVQLVESGGGLVQAGGSLRFICAASGRTFDWYAMGWYRPAPGKERELVAGNSWSGGSTYYADSVKGRFTISRDNAKNTVYLQMNSLKPEDTAVYYCAAEYPFEIGYVYYYIDYDYWGQGTQVTVSS	low polyreactivity
QVQLVESGGGLVQAGGSLRFSCAACGSIFEFYALGWSSQAPGKERELVAAITWDDGSTYYADSVKGRFTISRDNATNTVYLQMNSLTPEDTAVYYCAADTYITSDLYVYAYYYWGQGTQVTVSS	low polyreactivity
QVQLVESGGGLVQAGGSLRFSCAASGFIFSAYAMGWYRPAPGKERELVAAITWNGGSTYYADSVKGRFTISRDNAKNTVYLQMNSLKPEDTAVYYCNAVIKQHYIKYSYWGQGTQVTVSS	high polyreactivity
QVQLVESGGGLVQAGGSLRFSCAASGINFYFNAMGWYRQAPGKERELVAVITSGGSTNYADSVKGRFTISRDNAKNTVYLQMNSLKPEDTAVYYCATDKSYSSWSAQYVYWGQGTQVTVSS	low polyreactivity
QVQLVESGGGLVQAGGSLRFSCAASGITIRFYAMGWYRQAPGKERELVAAITRGGSTTYAHSVKGRFTISRDNAKNTVYLQMNSLKPEDTEVSYCNAQYQSGYYTSYPDRFDTWGQGTQVTVSS	low polyreactivity
QVQLVESGGGLVQAGGSLRFSCAASGNTFYQYAMGWYRQAPGKERELVAAIVWSGGTTYYADSVKGRFTISRDNAKNTVYLQMTSLKPEDTAVYYCNADYDRGPYDYDSWGQGTQVTVSS	low polyreactivity
QVQLVESGGGLVQAGGSLRFSCAASGRIFGDYAMGWYRLAPGKERELVAAISWSDGSTYYADSVKGRFTISRDNAKNTVYLQMNSLKPEDTAVYYCAASYWDTEPGYREYDYWGQGTQVTVSS	low polyreactivity
QVQLVESGGGLVQAGGSLRFSCAASGRIFQYNAMGWYRQAPGKERELVASITSGVRTYYADSVKGRFTISRDNAKNTVYLQMNSLKPEDTAVYYCNAYSGGQYDYCGQGTQVTVSS	high polyreactivity
QVQLVESGGGLVQAGGSLRFSCAASGRTFFGYAMGWYRQAPGKERELVAAISRGGTTHYADSVKGRFTISRDNAKNTVYLQMNSLKPEDTAVYYCAADGYPYIWSGIEYDYWGQGTQVTVSS	high polyreactivity
QVQLVESGGGLVQAGGSLRFSCAASGRTFGINAMGWYRQAPGKERELVAVITFGDGGTYYADSVKGRFTISRDNAKNTVYLQMNSLNPEDTAVYYCSTDYQSTSVWGGHFVINPYDYWGQGTQVTVSS	low polyreactivity
QVQLVESGGGLVQAGGSLRFSCAASGRTFTYYAMGWYRQAPGKERELVASIRKSGASTYYADSVKGRFTISRDKAKNTVYLQMNSLKPEETAVYYCNTAKGHGRYEYWGQGSQVTVSS	high polyreactivity
QVQLVESGGGLVQAGGSLRFSCAASGRTFYRNVMGWYRQAPGKERELVAVITSGGSTNYADSVKGRFTISRDNAQNTVYLQMNSLKPEDTAVYYCNTALSSRSNKMYYWGQGTQVTVSS	high polyreactivity
QVQLVESGGGLVQAGGSLRFSCAASGRTLVYNGMGWYRPAPGKERELVAAITTDGGDTYYADSVKGRFTISRDNAKNTVYLQMDSLKPEDTAVYYCAADYVALYYWYDYWGQGTQVTVSS	low polyreactivity
QVQLVESGGGLVQAGGSLRFSCAASGSIFDRYAMGWYRQAPGKERELVAAITYSGGSTYYADSVKGRFTISRDNAKNTVYLQMNSLKPEDTAVYYCATETYPQGRYYQSYDYWGQGTQVTVSS	low polyreactivity
QVQLVESGGGLVQAGGSLRFSCAASGSIFQPYAMGWSRQAPGKERAFVAAISRSGGITYYADSVKGRFTISRDNAKNTVYLQMNSLKPEDTAVYYCAADYILWKGSNSYYYAGYYYWGQGTQVTVSS	low polyreactivity
QVQLVESGGGLVQAGGSLRFSCAASGSIFSSYDMGWYRQAPGKERELVAAITRGGTTNYADSVKGRFTISRDNAKNTVYLQMNSLKPEDTAVYYCNVAYGLLGISPGGDYWGQGTQVTVSS	low polyreactivity
QVQLVESGGGLVQAGGSLRFSCAASGSILYGYAIGWYRQAPGQETELVAAIRLTGGSTYYADSVKGRFTISRDNAKNTVYLQMNSLKPEDTAVYYCAAEYNLRNYWGDYWGQGTLVTVSS	low polyreactivity
